Measured values from US6602687B1, “DNA encoding human ciliary neurotrophic factor and method for producing the protein encoded thereby” (Regeneron Pharmaceuticals, Inc., priority 1989, dated 2003).

Legend:
[1] = system: E8 dorsal root ganglion neurons; assay: Survival and neurite outgrowth of dorsal root ganglion neurons / DRG assay with E. coli protein extracts; assay type: cell-based; settings: protein extracts of E. coli carrying human CNTF sequence in pCP93
Method: In addition, protein extracts were prepared from the same cells lysed by treatment with lysozyme followed by three cycles of freezing and thawing. […] No such activity could be detected in control extracts from the same host cells carrying the plasmid vector without the rCNTF gene.
Human CNTF sequence, engineered to lack intron sequences, has been inserted into the pCP93 vector and used to transform competent E. coli.

E10 chick DRG = assay: Fiber outgrowth from explants of E10 chick embryo dorsal root ganglia; assay type: cell-based
Method: Biological activity of recombinant CNTF was assayed on explants of chick embryo dorsal root ganglia (DRG) and dissociated cultures of ciliary ganglion (CG) neurons as described in Lindsay and Rohrer (1985, Devel. Biol 112:30-48). Briefly, DRG were dissected from chick embryos of 10 days incubation (E10) and 5-6 ganglia were explanted in 1 ml of a collagen gel matrix in 35 mm tissue culture dishes. After the gel had set, 1 ml of tissue culture growth medium F14 (Imperial Labs., U.K.) supplemented with 5% heat-inactivated horse serum (GIBCO) was added before adding human CNTF (1-20 l) to a final concentration of 100 pg to 100 ng/ml. CG were dissected from E8 chick embryos and incubated for 30 min in 0.25% trypsin (Worthington) in calcium- and magnesium-free phosphate buffered saline. […] In explant cultures CNTF activity was determined by assessing the extent of fiber outgrowth in treated cultures compared to controls. Fiber outgrowth was scored on a scale of 0 to 5+, by comparing cultures to photographs of a dose-response of explanted DRG and NGF. In dissociated CG neuron cultures, CNTF activity was determined by counting at 48 hr the percentage of process-bearing neurons in control and CNTF-treated cultures. […]

[2] = system: E8 chick ciliary ganglion neurons; assay: Survival of dissociated E8 chick ciliary ganglion neurons; assay type: cell-based; settings: increasing amounts of pure protein
From the text: Ciliary neurotrophic factor activity may be evaluated using any CNTF-sensitive in vivo or in vitro system known in the art. For example, and not by way of limitation, in vitro systems have been developed which measure CNTF activity by quantitating 24-hour survival of embryonic (E8) chick ciliary ganglion (CG) neurons in monolayer cultures.
For example, ciliary ganglia may be collected from E8 chick embryos, dissociated (yielding approximately 20,000 cells per ganglion) and then diluted in HEBM medium containing 20 percent horse serum as described in Varon et al. (1979, Brain Res. 173:29-45). About fifty microliters of cell suspension containing neurons (2,000 cells) may then be seeded into microliter dishes and putative CNTF activity may be added. Culture plates may then be maintained at 37° C. in 5% CO2 for 24 hours, after which the cultures may be fixed by the addition of 200 μl 2 per cent glutaraldehyde in HEBM medium, and the number of surviving neurons may be determined visually by direct count under phase contrast microscopy.
Chick embryo ciliary ganglion cultures were created and maintained according to the method set forth in (Hughes et al., 1988, Nature 335 : 70-73).
Biological activity of recombinant CNTF was assayed on explants of chick embryo dorsal root ganglia (DRG) and dissociated cultures of ciliary ganglion (CG) neurons as described in Lindsay and Rohrer (1985, Devel. Biol 112:30-48). Briefly, DRG were dissected from chick embryos of 10 days incubation (E10) and 5-6 ganglia were explanted in 1 ml of a collagen gel matrix in 35 mm tissue culture dishes. After the gel had set, 1 ml of tissue culture growth medium F14 (Imperial Labs., U.K.) supplemented with 5% heat-inactivated horse serum (GIBCO) was added before adding human CNTF (1-20 l) to a final concentration of 100 pg to 100 ng/ml. CG were dissected from E8 chick embryos and incubated for 30 min in 0.25% trypsin (Worthington) in calcium- and magnesium-free phosphate buffered saline. The ganglia were then washed three times in F14 medium containing 5% horse serum before being dissociated to a single cell suspension by trituration through the bore of a Pasteur pipette. Enrichment for CG neurons was achieved by plating the cell suspension for 3.5 hr in a 60 mm dish, during which non-neuronal cells (fibroblasts and Schwann cells) attached firmly to the plastic while phase-bright neurons remained in suspension. The purified neurons were plated on polyornithine-laminin-coated 35 mm culture dishes at 8,000-10,000 neurons/dish. In explant cultures CNTF activity was determined by assessing the extent of fiber outgrowth in treated cultures compared to controls. Fiber outgrowth was scored on a scale of 0 to 5+, by comparing cultures to photographs of a dose-response of explanted DRG and NGF. In dissociated CG neuron cultures, CNTF activity was determined by counting at 48 hr the percentage of process-bearing neurons in control and CNTF-treated cultures. In all cases results were derived from triplicate cultures.

[3] = system: GABAergic neurons (hippocampal cultures); assay: Effect of other neurotrophic factors on GABAergic hippocampal neurons in culture; assay type: cell-based, rat
Method: Hippocampi were dissected from E18-19 rat embryos of Sprague-Dawley rats, and collected in F10 medium. The tissues were minced, rinsed twice with F10 medium (Gibco) and trypsinized with 0.25% trypsin (Gibco) for 20 minutes at 37° C. Trypsin was inactivated by the addition of a serum-containing medium composed of minimal essential medium (MEM) supplemented with fetal calf serum (FCS, 10%), glutamine (2 mM), penicillin (25 U/ml) and streptomycin (25 ug/ml). Dissociated cells obtained by gentle trituration were collected and centrifuged at low speed (500 rpm) for 30 seconds. The centrifugation was repeated twice, and the cell pellets were then resuspended in serum-containing medium. The cells were then plated onto 6 mm wells or 35 mm dishes that were coated with polyornithine (10 ug/ml) and laminin (10 ug/ml). In most of the experiments, the cells were plated at a low density of approximately 71,000 cells/cm^2. Five to six hours following the plating of cells, medium was changed to a serum-free medium containing 1% N3 and penicillin-streptomycin (25 units/ml and 25 ug/ml, respectively), at which time CNTF was added. Medium was changed every three to four days, with re-addition of the factor. […]

[4] = system: Mediodorsal (MD) spinal cord neurons; assay: E14 rat mediodorsal spinal cord neuron cultures in defined medium; assay type: cell-based; settings: CNTF 2 μl/ml (recombinant rat, E. coli extract), NGF 50 ng/ml at plating; day 7; Bradford
From the text: (§1) Sprague-Dawley rats (HSD) were used for all experiments. Pregnant rats were sacrificed by carbon dioxide asphyxiation, and the embryos were rapidly removed and placed in ice-cold Puck's saline G for further dissection.
(§2) Spinal cords were removed aseptically from rat embryos on the 14th day of gestation. The spinal cord was severed caudal to the bulb, freed of sensory ganglia and meninges. The cord was then subdivided into ventral and mediodorsal segments for separate cultures. The cord tissues were minced into small pieces and mechanically dissociated by trituration through a Pasteur pipet in defined culture medium consisting of 50% basal medium Eagle (BME; Gibco) and 50% Ham's nutrient mixture F12 (Gibco) supplemented with glucose (33 mM), glutamine (2 mM, NaHCO3 (15 mM), HEPES (10 mM), insulin (25 μg/ml), transferrin (100 μg/ml) putrescine (60 μM), progesterone (20 nM), Na selenite (30 nM), penicillin G (0.5 μg/ml), streptomycin (0.5 μg/ml), and bovine serum albumin (2.5 μg/ml). Trituration was repeated twice and the supernatants were pooled and filtered through a nylon (Nitex, Tetko) filter (40 μm). Total cell number yielded was determined by hemocytometer counting in the presence of trypan blue. Dissociated ventral cells were then plated at a density of 0.5 million cells/35 mm dish coated with poly-D-lysine (10 μg/ml). Dissociated mediodorsal cells were plated at a density of 1.5 million/35 mm dish coated with poly-D-lysine (10 μg/ml), poly-L-ornithine (10 μg/ml), or poly-L-ornithine with laminin (5 μg/ml). Treatments to these cultures were added at the time of plating. Cultures were maintained at 37° C. in a 95% air/5% CO2 atmosphere at nearly 100% relative humidity. Culture medium was changed every three to four days.

[5] = system: Ventral spinal cord neurons; assay: Choline acetyltransferase (CAT) activity in ventral spinal cord cultures; assay type: cell-based, rat; settings: CNTF 10 ng/ml, NGF 50 ng/ml, FGF 50 ng/ml at plating; after 7 days in culture
Method: (§3) Sprague-Dawley rats (HSD or Zivic-Miller) were used for all experiments. Pregnant rats (E14) were sacrificed as described in 10.1.1.
Spinal cords were removed aseptically from rat embryos as described in 10.1.2. The cord tissues were minced into small pieces and incubated in 0.1% trypsin (GIBCO) and 0.01% deoxyribonuclease type 1 (Sigma) at 37° C. for 20 minutes. Trypsin solution was then removed, rinsed and replaced with medium consisting of 45% Eagle's minimum essential medium (MEM), 45% Ham's nutrient mixture F12 (F12), 5% fetal calf serum (GIBCO), 5% horse serum (GIBCO) glutamine (2 mM), penicillin G (0.5 U/ml), and streptomycin (0.5 ug/ml). This was then mechanically dissociated twice by gentle trituration through a Pasteur pipet in the same medium, and the supernatants were pooled and filtered through a nylon filter (Nitex, Tetko; 40 um). Total cell number yielded was determined by hemocytometer counting in the presence of trypan blue. Dissociated ventral cells were then plated at a density of approximately 50,000 cells/cm^2 on dishes coated with poly-L-ornithine (10 ug/ml) and laminin (5 ug/ml). Treatments were given on the day of plating, except for delayed addition experiments in which treatments were given on days 2 or 6. Cultures were maintained at 37° C. in 95% air/5% CO2 atmosphere at nearly 100% relative humidity. Culture medium was changed every 3 to 4 days. A mitotic inhibitor, cytosine arabinoside (Ara C; 0.5 uM), was added on day 2 to reduce the number of nonneuronal cells. On day 7, cells were harvested for measurements of choline acetyltransferase (CAT; Fonnum, 1975 J. Neurochem. 24:407-409) and protein (Bradford, 1976, Annal. Biochem. 72:248-254) levels or fixed in 4% paraformaldehyde for NF assay (Doherty et al., 1984, J. Neurochem. 42:1116-1122) and immunocytochemistry. Some cultures were grown in defined medium consisting of 50% F12 and 50% MEM, glutamine (2 mM), insulin (5 ug/ml), transferrin (100 ug/ml), progesterone (20 nM), putrescine (10 uM), and sodium selenite (30 nM) (Bottenstein and Sato, 1979, PNAS 76:514-517). In these cultures sera-containing medium was replaced with defined medium on day 1.
Cultures were harvested by lysing the cells in a 20 mM Tris-HCl (pH 8.6) solution containing 0.1% Triton X-100. Two microliters of the cell lysate was removed and assayed for CAT activity according to the micro-Fonnum procedure (Fonnum, 1975, J. Neurochem. 24:407-409). The final substrate composition consisted of 0.2 mM [1-^14C] Acetyl-CoA (NEN, 54.4 mCi/mmol), 300 mM NaCl, 8 mM choline bromide, 20 mM EDTA, and 0.1 mM neostigmine in 50 mM NaH2PO4 (pH 7.4) buffer. At these enzyme and substrate concentrations, the enzymatic reaction was linear for 90-120 minutes. The specificity of the induction for CAT was tested by the addition of a specific inhibitor of CAT activity, N-hydroxyethyl-4-(1-napthylvinyl) pyridium (HNP), during the assay (White and Cavallito, 1970, J. Neurochem. 17:1579-1589).

[6] = system: AchE-containing ventral spinal cord neurons; assay: Count of AchE-containing neurons in ventral spinal cord cultures; assay type: cell-based, rat; settings: CNTF 10 ng/ml at plating; 7 days
Method: as §3
Spinal cords were removed aseptically from rat embryos as described in 10.1.2. The cord tissues were minced into small pieces and incubated in 0.1% trypsin (GIBCO) and 0.01% deoxyribonuclease type 1 (Sigma) at 37° C. for 20 minutes. Trypsin solution was then removed, rinsed and replaced with medium consisting of 45% Eagle's minimum essential medium (MEM), 45% Ham's nutrient mixture F12 (F12), 5% fetal calf serum (GIBCO), 5% horse serum (GIBCO) glutamine (2 mM), penicillin G (0.5 U/ml), and streptomycin (0.5 ug/ml). This was then mechanically dissociated twice by gentle trituration through a Pasteur pipet in the same medium, and the supernatants were pooled and filtered through a nylon filter (Nitex, Tetko; 40 um). Total cell number yielded was determined by hemocytometer counting in the presence of trypan blue. Dissociated ventral cells were then plated at a density of approximately 50,000 cells/cm^2 on dishes coated with poly-L-ornithine (10 ug/ml) and laminin (5 ug/ml). Treatments were given on the day of plating, except for delayed addition experiments in which treatments were given on days 2 or 6. Cultures were maintained at 37° C. in 95% air/5% CO2 atmosphere at nearly 100% relative humidity. Culture medium was changed every 3 to 4 days. […]

[7] = system: Ventral spinal cord neurons; assay: Neurofilament (NF) assay in ventral spinal cord neuron cultures; assay type: cell-based, rat; settings: CNTF 10 ng/ml, NGF 50 ng/ml at plating; day 7
Method: as §3
Spinal cords were removed aseptically from rat embryos as described in 10.1.2. The cord tissues were minced into small pieces and incubated in 0.1% trypsin (GIBCO) and 0.01% deoxyribonuclease type 1 (Sigma) at 37° C. for 20 minutes. Trypsin solution was then removed, rinsed and replaced with medium consisting of 45% Eagle's minimum essential medium (MEM), 45% Ham's nutrient mixture F12 (F12), 5% fetal calf serum (GIBCO), 5% horse serum (GIBCO) glutamine (2 mM), penicillin G (0.5 U/ml), and streptomycin (0.5 ug/ml). […] Total cell number yielded was determined by hemocytometer counting in the presence of trypan blue. […]
After fixation of the cells in 4% paraformaldehyde at 4° C. for 2 hours, the cultures were then permeabilized and blocked according to the procedures described in Doherty et al. (1984, J. Neurochem. 42:1116-1122). Neurofilament protein was detected using a monoclonal antibody RT97 (Wood and Anderton, 1981, Biosci. Rep. 1:263-268) at a 1:1000 dilution. The reaction product was visualized using O-phenylenediamine (OPD) as a substrate and optical density was measured at 490 nm.

[8] = system: Ventral spinal cord neurons; assay: E14 rat ventral spinal cord neuron cultures in defined medium; assay type: cell-based; settings: CNTF 2 μl/ml, NGF 50 ng/ml at plating; day 7
From the text: as §1, §2

B1: recombinant human CNTF: human ciliary neurotrophic factor expressed in E. coli (protein, UniProt P26441 1-200, looked up)
Ciliary neurotrophic factor: MAFTEHSPLTPHRRDLCSRSIWLARKIRSDLTALTESYVKHQGLNKNINLDSADGMPVASTDQWSELTEAERLQENLQAYRTFHVLLARLLEDQQVHFTPTEGDFHQAIHTLLLQVAAFAYQIEELMILLEYKIPRNEADGMPINVGDGGLFEKKLWGLKVLQELSQWTVRSIHDLRFISSHQTGIPARGSHYIANNKKM
CNTF activity in DRG assay [1]: CNTF activity
maximum fiber outgrowth at saturating levels, relative to saturating levels of NGF (E10 chick DRG): 50-75%
activity towards chick ciliary neurons compared with rat CNTF [2]: as active as rat CNTF

B2: NGF: mouse nerve growth factor (protein, UniProt P01139 122-241, looked up)
Beta-nerve growth factor: SSTHPVFHMGEFSVCDSVSVWVGDKTTATDIKGKEVTVLAEVNINNSVFRQYFFETKCRASNPVESGCRGIDSKHWNSYCTTTHTFVKALTTDEKQAAWRFIRIDTACVCVLSRKATRRG
effect on / survival of GABAergic neurons [3]: not able to detect any effect
μg protein dish [4]: 20 μg protein dish
increase in CAT activity [5]: no effect
increase in AchE-positive neurons versus untreated controls [6]: small effect
increase in NF content versus untreated controls [7]: did not produced any significant effect
CAT Activity [8]: 621.25 ± 33.59 CPM/dish
Protein [8]: 38 μg/dish
